Assay results from paper PMC10586780 (Biochemical Journal, 2023).
Residue numbers refer to the chain shown, from its start. Names and notes keep the numbering of the source. Values joined by “and” are separate entries in the source; they are usually repeats but may differ in a detail not shown here. Equal values may be shown once.

B1: human liver phosphofructokinase-1 (PFKL), wild type, recombinant (enzyme)
chain: MAAVDLEKLRASGAGKAIGVLTSGGDAQGMNAAVRAVTRMGIYVGAKVFLIYEGYEGLVEGGENIKQANWLSVSNIIQLGGTIIGSARCKAFTTREGRRAAAYNLVQHGITNLCVIGGDGSLTGANIFRSEWGSLLEELVAEGKISETTARTYSHLNIAGLVGSIDNDFCGTDMTIGTDSALHRIMEVIDAITTTAQSHQRTFVLEVMGRHCGYLALVSALASGADWLFIPEAPPEDGWENFMCERLGETRSRGSRLNIIIIAEGAIDRNGKPISSSYVKDLVVQRLGFDTRVTVLGHVQRGGTPSAFDRILSSKMGMEAVMALLEATPDTPACVVTLSGNQSVRLPLMECVQMTKEVQKAMDDKRFDEATQLRGGSFENNWNIYKLLAHQKPPKEKSNFSLAILNVGAPAAGMNAAVRSAVRTGISHGHTVYVVHDGFEGLAKGQVQEVGWHDVAGWLGRGGSMLGTKRTLPKGQLESIVENIRIYGIHALLVVGGFEAYEGVLQLVEARGRYEELCIVMCVIPATISNNVPGTDFSLGSDTAVNAAMESCDRIKQSASGTKRRVFIVETMGGYCGYLATVTGIAVGADAAYVFEDPFNIHDLKVNVEHMTEKMKTDIQRGLVLRNEKCHDYYTTEFLYNLYSSEGKGVFDCRTNVLGHLQQGGAPTPFDRNYGTKLGVKAMLWLSEKLREVYRKGRVFANAPDSACVIGLKKKAVAFSPVTELKKDTDFEHRMPREQWWLSLRLMLKMLAQYRISMAAYVSGELEHVTRRTLSMDKGF
B2: human liver phosphofructokinase-1 with the cancer-associated mutation D553N (PFKL-D553N), recombinant (enzyme)
chain: B1 chain with D553N
B3: human platelet phosphofructokinase-1 with the cancer-associated mutation D564N (PFKP-D564N), recombinant (enzyme, UniProt Q01813-1 1-784, looked up)
chain: MDADDSRAPKGSLRKFLEHLSGAGKAIGVLTSGGDAQGMNAAVRAVVRMGIYVGAKVYFIYEGYQGMVDGGSNIAEADWESVSSILQVGGTIIGSARCQAFRTREGRLKAACNLLQRGITNLCVIGGDGSLTGANLFRKEWSGLLEELARNGQIDKEAVQKYAYLNVVGMVGSIDNDFCGTDMTIGTDSALHRIIEVVDAIMTTAQSHQRTFVLEVMGRHCGYLALVSALACGADWVFLPESPPEEGWEEQMCVKLSENRARKKRLNIIIVAEGAIDTQNKPITSEKIKELVVTQLGYDTRVTILGHVQRGGTPSAFDRILASRMGVEAVIALLEATPDTPACVVSLNGNHAVRLPLMECVQMTQDVQKAMDERRFQDAVRLRGRSFAGNLNTYKRLAIKLPDDQIPKTNCNVAVINVGAPAAGMNAAVRSAVRVGIADGHRMLAIYDGFDGFAKGQIKEIGWTDVGGWTGQGGSILGTKRVLPGKYLEEIATQMRTHSINALLIIGGFEAYLGLLELSAAREKHEEFCVPMVMVPATVSNNVPGSDFSIGADTALNTITDTCNRIKQSASGTKRRVFIIETMGGYCGYLANMGGLAAGADAAYIFEEPFDIRDLQSNVEHLTEKMKTTIQRGLVLRNESCSENYTTDFIYQLYSEEGKGVFDCRKNVLGHMQQGGAPSPFDRNFGTKISARAMEWITAKLKEARGRGKKFTTDDSICVLGISKRNVIFQPVAELKKQTDFEHRIPKEQWWLKLRPLMKILAKYKASYDVSDSGQLEHVQPWSV

Biological target: the molecule itself
Assay: native gel or EMSA

Row | Protein | stoichiometry N
1 | B1 | 4 and > 4
2 | B2 | 4
3 | B3 | 4
